Measurements reported in the supplement of paper PMC9112550, “Optimization of the antimicrobial peptide Bac7 by deep mutational scanning” (BMC Biology, 2022).

Test system: Escherichia coli TOP10
Assay: shrunken log2 fold change of peptide-encoding DNA abundance (4.5 h post-induction vs induction); higher = less antimicrobial activity (less host growth inhibition)
Settings: time post-induction: 4.5 h; library: site-saturation at positions 5, 18, 19, 20
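Note: peptides expressed intracellularly from a pBAD plasmid library in pooled LB shake-flask culture, induced with 0.3% L-arabinose, DNA abundance read by NGS, three biological replicates, DESeq2 with apeglm shrinkage.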

Row | Sequence | shrunken log2 fold change
1 | RRIRVRPPRLPRPRPRPKVAPRP | 0.12
2 | RRIRVRPPRLPRPRPRPKVFPRP | -0.0519
3 | RRIRVRPPRLPRPRPRPKWHPRP | -0.123
4 | RRIRVRPPRLPRPRPRPKWQPRP | -0.0246
5 | RRIRVRPPRLPRPRPRPKWVPRP | 0.0874
6 | RRIRVRPPRLPRPRPRPKYAPRP | -0.236
7 | RRIRVRPPRLPRPRPRPKYCPRP | -0.221
8 | RRIRVRPPRLPRPRPRPKYEPRP | 0.0383
9 | RRIRVRPPRLPRPRPRPLATPRP | 0.309
10 | RRIRVRPPRLPRPRPRPLCWPRP | 0.00832
11 | RRIRVRPPRLPRPRPRPLDIPRP | -0.0121
12 | RRIRVRPPRLPRPRPRPLDVPRP | -0.277
13 | RRIRVRPPRLPRPRPRPLDYPRP | -0.244
14 | RRIRVRPPRLPRPRPRPLEFPRP | -0.114
15 | RRIRVRPPRLPRPRPRPLEHPRP | -0.22
16 | RRIRVRPPRLPRPRPRPLEVPRP | 0.0693
17 | RRIRVRPPRLPRPRPRPLFAPRP | 0.477
18 | RRIRVRPPRLPRPRPRPLGRPRP | 0.267
19 | RRIRVRPPRLPRPRPRPLHPPRP | 0.149
20 | RRIRVRPPRLPRPRPRPLKHPRP | -0.486
21 | RRIRVRPPRLPRPRPRPLLCPRP | -0.642
22 | RRIRVRPPRLPRPRPRPLLYPRP | -0.259
23 | RRIRVRPPRLPRPRPRPLNLPRP | -0.304
24 | RRIRVRPPRLPRPRPRPLQCPRP | -0.371
25 | RRIRVRPPRLPRPRPRPLQGPRP | -0.292

Row | Sequence | shrunken log2 fold change
26 | RRIRVRPPRLPRPRPRPLQQPRP | -0.55
27 | RRIRVRPPRLPRPRPRPLQTPRP | 0.158
28 | RRIRVRPPRLPRPRPRPLQVPRP | -0.0194
29 | RRIRVRPPRLPRPRPRPLQWPRP | 0.209
30 | RRIRVRPPRLPRPRPRPLTIPRP | -0.329
31 | RRIRVRPPRLPRPRPRPLYEPRP | -0.168
32 | RRIRVRPPRLPRPRPRPMARPRP | 0.0955
33 | RRIRVRPPRLPRPRPRPMCTPRP | -0.0103
34 | RRIRVRPPRLPRPRPRPMCWPRP | 0.00173
35 | RRIRVRPPRLPRPRPRPMDAPRP | 0.0377
36 | RRIRVRPPRLPRPRPRPMDGPRP | 0.145
37 | RRIRVRPPRLPRPRPRPMENPRP | -0.0625
38 | RRIRVRPPRLPRPRPRPMGAPRP | 0.813
39 | RRIRVRPPRLPRPRPRPMHHPRP | -0.257
40 | RRIRVRPPRLPRPRPRPMIEPRP | -0.255
41 | RRIRVRPPRLPRPRPRPMIFPRP | -0.213
42 | RRIRVRPPRLPRPRPRPMIQPRP | -0.403
43 | RRIRVRPPRLPRPRPRPMKFPRP | -0.124
44 | RRIRVRPPRLPRPRPRPMKTPRP | 0.00695
45 | RRIRVRPPRLPRPRPRPMLAPRP | 0.446
46 | RRIRVRPPRLPRPRPRPMLWPRP | 0.0613
47 | RRIRVRPPRLPRPRPRPMNCPRP | 0.0359
48 | RRIRVRPPRLPRPRPRPMPAPRP | 0.149
49 | RRIRVRPPRLPRPRPRPMRGPRP | 0.444
50 | RRIRVRPPRLPRPRPRPMRLPRP | 0.617

Row | Sequence | shrunken log2 fold change
51 | RRIRVRPPRLPRPRPRPMSSPRP | 0.0619
52 | RRIRVRPPRLPRPRPRPMSTPRP | -0.268
53 | RRIRVRPPRLPRPRPRPMSYPRP | -0.0627
54 | RRIRVRPPRLPRPRPRPMTIPRP | -0.435
55 | RRIRVRPPRLPRPRPRPMVAPRP | -0.148
56 | RRIRVRPPRLPRPRPRPMVHPRP | 0.141
57 | RRIRVRPPRLPRPRPRPMWDPRP | -0.101
58 | RRIRVRPPRLPRPRPRPMYLPRP | -0.0313
59 | RRIRVRPPRLPRPRPRPMYMPRP | -0.748
60 | RRIRVRPPRLPRPRPRPNAIPRP | 0.0894
61 | RRIRVRPPRLPRPRPRPNCMPRP | -0.222
62 | RRIRVRPPRLPRPRPRPNDAPRP | -0.231
63 | RRIRVRPPRLPRPRPRPNDWPRP | -0.208
64 | RRIRVRPPRLPRPRPRPNEFPRP | -0.00739
65 | RRIRVRPPRLPRPRPRPNEIPRP | -0.52
66 | RRIRVRPPRLPRPRPRPNEPPRP | 0.097
67 | RRIRVRPPRLPRPRPRPNFGPRP | -0.098
68 | RRIRVRPPRLPRPRPRPNFHPRP | -0.115
69 | RRIRVRPPRLPRPRPRPNFMPRP | 0.0796
70 | RRIRVRPPRLPRPRPRPNGCPRP | 0.0454
71 | RRIRVRPPRLPRPRPRPNGIPRP | -0.161
72 | RRIRVRPPRLPRPRPRPNHQPRP | -0.221
73 | RRIRVRPPRLPRPRPRPNHTPRP | -0.402
74 | RRIRVRPPRLPRPRPRPNIGPRP | -0.0964
75 | RRIRVRPPRLPRPRPRPNIWPRP | -0.13

Row | Sequence | shrunken log2 fold change
76 | RRIRVRPPRLPRPRPRPNKIPRP | -0.295
77 | RRIRVRPPRLPRPRPRPNKNPRP | 0.0192
78 | RRIRVRPPRLPRPRPRPNLAPRP | 0.0958
79 | RRIRVRPPRLPRPRPRPNLLPRP | -0.22
80 | RRIRVRPPRLPRPRPRPNLPPRP | 0.232
81 | RRIRVRPPRLPRPRPRPNMLPRP | -0.432
82 | RRIRVRPPRLPRPRPRPNNKPRP | -0.472
83 | RRIRVRPPRLPRPRPRPNPGPRP | -0.131
84 | RRIRVRPPRLPRPRPRPNQHPRP | -0.289
85 | RRIRVRPPRLPRPRPRPNQTPRP | -0.0286
86 | RRIRVRPPRLPRPRPRPNSCPRP | -0.394
87 | RRIRVRPPRLPRPRPRPNSGPRP | -0.496
88 | RRIRVRPPRLPRPRPRPNTLPRP | -0.478
89 | RRIRVRPPRLPRPRPRPNTVPRP | -0.0689
90 | RRIRVRPPRLPRPRPRPNTYPRP | -0.71
91 | RRIRVRPPRLPRPRPRPNVIPRP | -0.329
92 | RRIRVRPPRLPRPRPRPNVNPRP | -0.494
93 | RRIRVRPPRLPRPRPRPNWPPRP | 0.282
94 | RRIRVRPPRLPRPRPRPNYGPRP | -0.387
95 | RRIRVRPPRLPRPRPRPNYYPRP | -0.373
96 | RRIRVRPPRLPRPRPRPPAHPRP | 0.231
97 | RRIRVRPPRLPRPRPRPPAMPRP | 0.246
98 | RRIRVRPPRLPRPRPRPPCVPRP | -0.112
99 | RRIRVRPPRLPRPRPRPPDGPRP | 0.422
100 | RRIRVRPPRLPRPRPRPPHCPRP | 0.178

Row | Sequence | shrunken log2 fold change
101 | RRIRVRPPRLPRPRPRPPHGPRP | -0.317
102 | RRIRVRPPRLPRPRPRPPHRPRP | 0.29
103 | RRIRVRPPRLPRPRPRPPIQPRP | -0.245
104 | RRIRVRPPRLPRPRPRPPIWPRP | -0.109
105 | RRIRVRPPRLPRPRPRPPKCPRP | -0.173
106 | RRIRVRPPRLPRPRPRPPKHPRP | 0.0761
107 | RRIRVRPPRLPRPRPRPPKRPRP | -0.193
108 | RRIRVRPPRLPRPRPRPPLFPRP | 0.256
109 | RRIRVRPPRLPRPRPRPPLQPRP | 0.272
110 | RRIRVRPPRLPRPRPRPPLTPRP | 0.119
111 | RRIRVRPPRLPRPRPRPPMQPRP | 0.152
112 | RRIRVRPPRLPRPRPRPPPAPRP | 1.07
113 | RRIRVRPPRLPRPRPRPPPVPRP | 0.767
114 | RRIRVRPPRLPRPRPRPPRAPRP | 0.641
115 | RRIRVRPPRLPRPRPRPPVKPRP | -0.112
116 | RRIRVRPPRLPRPRPRPPWMPRP | -0.0435
117 | RRIRVRPPRLPRPRPRPPWSPRP | 0.161
118 | RRIRVRPPRLPRPRPRPPWVPRP | 0.297
119 | RRIRVRPPRLPRPRPRPPYFPRP | 0.0499
120 | RRIRVRPPRLPRPRPRPQCFPRP | 0.00325
121 | RRIRVRPPRLPRPRPRPQCYPRP | -0.189
122 | RRIRVRPPRLPRPRPRPQDFPRP | 0.00129
123 | RRIRVRPPRLPRPRPRPQDGPRP | -0.00098
124 | RRIRVRPPRLPRPRPRPQFCPRP | -0.17
125 | RRIRVRPPRLPRPRPRPQFLPRP | 0.052

Row | Sequence | shrunken log2 fold change
126 | RRIRVRPPRLPRPRPRPQFTPRP | -0.697
127 | RRIRVRPPRLPRPRPRPQHQPRP | -0.571
128 | RRIRVRPPRLPRPRPRPQIFPRP | -0.0538
129 | RRIRVRPPRLPRPRPRPQLAPRP | 0.402
130 | RRIRVRPPRLPRPRPRPQMEPRP | -0.0589
131 | RRIRVRPPRLPRPRPRPQMTPRP | -0.0158
132 | RRIRVRPPRLPRPRPRPQNCPRP | -0.205
133 | RRIRVRPPRLPRPRPRPQPGPRP | 0.255
134 | RRIRVRPPRLPRPRPRPQQKPRP | -0.027
135 | RRIRVRPPRLPRPRPRPQRDPRP | -0.171
136 | RRIRVRPPRLPRPRPRPQRHPRP | -0.0604
137 | RRIRVRPPRLPRPRPRPQRVPRP | 0.0942
138 | RRIRVRPPRLPRPRPRPQSKPRP | -0.172
139 | RRIRVRPPRLPRPRPRPQSRPRP | 0.0616
140 | RRIRVRPPRLPRPRPRPQTCPRP | -0.193
141 | RRIRVRPPRLPRPRPRPQWCPRP | 0.0102
142 | RRIRVRPPRLPRPRPRPQYTPRP | -0.526
143 | RRIRVRPPRLPRPRPRPRAIPRP | 1.97
144 | RRIRVRPPRLPRPRPRPRCIPRP | -0.661
145 | RRIRVRPPRLPRPRPRPRCKPRP | 0.039
146 | RRIRVRPPRLPRPRPRPRDCPRP | 2.64
147 | RRIRVRPPRLPRPRPRPRDNPRP | -0.109
148 | RRIRVRPPRLPRPRPRPRDYPRP | -0.0816
149 | RRIRVRPPRLPRPRPRPRKMPRP | 0.299
150 | RRIRVRPPRLPRPRPRPRKQPRP | 0.383
